The target of this test is HA-tagged NR4A3 (UniProt Q92570 1-626). As to the kind of experiment: cell-based or functional assay.

The record followed here is PMC7565926, “Oncogenic Orphan Nuclear Receptor NR4A3 Interacts and Cooperates with MYB in Acinic Cell Carcinoma” (Cancers, 2020).

HA-tagged NR4A3, sequence (Q92570 whole entry): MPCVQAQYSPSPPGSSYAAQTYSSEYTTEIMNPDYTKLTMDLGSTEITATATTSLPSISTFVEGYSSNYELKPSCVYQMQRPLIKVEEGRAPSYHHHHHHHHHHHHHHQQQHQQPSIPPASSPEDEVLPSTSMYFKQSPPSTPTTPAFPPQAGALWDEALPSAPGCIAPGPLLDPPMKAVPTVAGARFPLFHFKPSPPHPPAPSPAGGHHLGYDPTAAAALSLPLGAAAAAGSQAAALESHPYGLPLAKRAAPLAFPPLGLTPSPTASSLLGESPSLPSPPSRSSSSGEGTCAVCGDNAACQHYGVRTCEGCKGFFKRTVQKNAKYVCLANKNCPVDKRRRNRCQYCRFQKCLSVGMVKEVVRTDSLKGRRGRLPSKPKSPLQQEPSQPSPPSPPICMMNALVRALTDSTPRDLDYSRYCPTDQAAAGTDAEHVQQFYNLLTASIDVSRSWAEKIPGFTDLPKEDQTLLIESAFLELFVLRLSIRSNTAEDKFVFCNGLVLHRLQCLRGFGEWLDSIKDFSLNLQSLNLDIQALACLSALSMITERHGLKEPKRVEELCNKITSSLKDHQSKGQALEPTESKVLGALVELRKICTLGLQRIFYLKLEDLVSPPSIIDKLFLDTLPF

B1: Myb (natural protein)
chain: not shown
Take B1: the “activation of the NurRE luciferase reporter in HeLa cells on co-expression of full-length Myb with NR4A3 (NR4A3 by itself 6-fold)” value was determined as 27 fold.
